This note sets out measurements from patent USRE47150 (Bayer, dated 2018).

The target in experiment [1] is T1, mouse tissue factor pathway inhibitor (TFPI) (mouse, UniProt O54819 29-289, limits assumed).
T1 construct: bought; also called mTFPI; murine TFPI
T1 sequence (looked up): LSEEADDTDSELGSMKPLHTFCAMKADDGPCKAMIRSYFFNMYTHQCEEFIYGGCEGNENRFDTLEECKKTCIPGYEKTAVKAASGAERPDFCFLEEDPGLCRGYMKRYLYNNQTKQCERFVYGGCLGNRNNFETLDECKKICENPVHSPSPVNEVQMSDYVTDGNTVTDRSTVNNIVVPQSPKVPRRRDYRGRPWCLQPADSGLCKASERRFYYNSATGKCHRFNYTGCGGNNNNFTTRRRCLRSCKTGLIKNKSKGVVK
In words: competitive ELISA. (An ELISA detects its analyte on a solid surface through an enzyme-linked reagent.)

Experiment [2] has as its target T2, human tissue factor pathway inhibitor (TFPI) (human, UniProt P10646 29-304, limits assumed).
T2 construct: bought; also called hTFPI; human TFPI
T2 sequence (looked up): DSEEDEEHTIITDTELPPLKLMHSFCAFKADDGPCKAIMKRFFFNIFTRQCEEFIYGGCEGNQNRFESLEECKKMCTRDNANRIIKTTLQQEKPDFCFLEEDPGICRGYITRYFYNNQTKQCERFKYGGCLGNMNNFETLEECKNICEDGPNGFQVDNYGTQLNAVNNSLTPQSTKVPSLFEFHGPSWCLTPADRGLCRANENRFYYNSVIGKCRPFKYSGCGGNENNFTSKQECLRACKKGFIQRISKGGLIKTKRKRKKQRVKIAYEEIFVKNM
In words: competitive ELISA.

B1: 2A8 HC S35D+S50A+K99L/LC Y48F+D91L+V96W (Fab, V domains shown)
VH: QVQLVESGGGLVQPGGSLRLSCAASGFTFRSYGMDWVRQAPGKGLEWVSAIRGSSSSTYYADSVKGRFTISRDNSKNTLYLQMNSLRAEDTAVYYCARLYRYWFDYWGQGTLVTVSS
VL: DIELTQPPSVSVAPGQTARISCSGDNLRNYYAHWYQQKPGQAPVVVIFYDNNRPSGIPERFSGSNSGNTATLTISGTQAEDEADYYCQSWLDGVPWFGGGTKLTVLG
Regarding B1, the results for the variant/HC_K99L in experiment [1] and in experiment [2] were 4.6 ratio and 4 ratio, respectively.

B2: 2A8 HC S35D+S55R+K99L/LC Y48F+N51V+D91W+D92S (Fab, V domains shown)
VH: QVQLVESGGGLVQPGGSLRLSCAASGFTFRSYGMDWVRQAPGKGLEWVSSIRGSRSSTYYADSVKGRFTISRDNSKNTLYLQMNSLRAEDTAVYYCARLYRYWFDYWGQGTLVTVSS
VL: DIELTQPPSVSVAPGQTARISCSGDNLRNYYAHWYQQKPGQAPVVVIFYDVNRPSGIPERFSGSNSGNTATLTISGTQAEDEADYYCQSWWSGVPVFGGGTKLTVLG
On to B2, for which the results for the variant/HC_K99L in experiment [1] and in experiment [2] were 22.8 ratio and 23.9 ratio, respectively.

B3: 2A8 HC S35D+S55R+K99L/LC Y48F+N51V+D91W+G93S (Fab, V domains shown)
VH: QVQLVESGGGLVQPGGSLRLSCAASGFTFRSYGMDWVRQAPGKGLEWVSSIRGSRSSTYYADSVKGRFTISRDNSKNTLYLQMNSLRAEDTAVYYCARLYRYWFDYWGQGTLVTVSS
VL: DIELTQPPSVSVAPGQTARISCSGDNLRNYYAHWYQQKPGQAPVVVIFYDVNRPSGIPERFSGSNSGNTATLTISGTQAEDEADYYCQSWWDSVPVFGGGTKLTVLG
With B3, the values for the variant/HC_K99L in experiment [1] and in experiment [2] were 16.5 ratio and 17 ratio, respectively.

B4: 2A8 HC S35D+S55R+K99L/LC D1S+Y48F+N51V+D91W (Fab, V domains shown)
VH: QVQLVESGGGLVQPGGSLRLSCAASGFTFRSYGMDWVRQAPGKGLEWVSSIRGSRSSTYYADSVKGRFTISRDNSKNTLYLQMNSLRAEDTAVYYCARLYRYWFDYWGQGTLVTVSS
VL: SIELTQPPSVSVAPGQTARISCSGDNLRNYYAHWYQQKPGQAPVVVIFYDVNRPSGIPERFSGSNSGNTATLTISGTQAEDEADYYCQSWWDGVPVFGGGTKLTVLG
Regarding B4, the variant/HC_K99L came to 22 ratio in experiment [1] and 21.9 ratio in experiment [2].

B5: 2A8 HC S35D+S55R+K99L/LC Y48F+N51V+S89A+D91W (Fab, V domains shown)
VH: QVQLVESGGGLVQPGGSLRLSCAASGFTFRSYGMDWVRQAPGKGLEWVSSIRGSRSSTYYADSVKGRFTISRDNSKNTLYLQMNSLRAEDTAVYYCARLYRYWFDYWGQGTLVTVSS
VL: DIELTQPPSVSVAPGQTARISCSGDNLRNYYAHWYQQKPGQAPVVVIFYDVNRPSGIPERFSGSNSGNTATLTISGTQAEDEADYYCQAWWDGVPVFGGGTKLTVLG
For the molecule B5, the results for the variant/HC_K99L in experiment [1] and in experiment [2] were 18.2 ratio and 18.6 ratio, respectively.

B6: 2A8 HC S35D+S55R+K99L/LC Y48F+N51V+D91W+V94T (Fab, V domains shown)
VH: QVQLVESGGGLVQPGGSLRLSCAASGFTFRSYGMDWVRQAPGKGLEWVSSIRGSRSSTYYADSVKGRFTISRDNSKNTLYLQMNSLRAEDTAVYYCARLYRYWFDYWGQGTLVTVSS
VL: DIELTQPPSVSVAPGQTARISCSGDNLRNYYAHWYQQKPGQAPVVVIFYDVNRPSGIPERFSGSNSGNTATLTISGTQAEDEADYYCQSWWDGTPVFGGGTKLTVLG
As to B6, the variant/HC_K99L in experiment [1] was found to be 19.9 ratio; in experiment [2], 22.8 ratio.

B7: 2A8 HC S35D+S55R+K99L/LC N29K+Y48F+N51V+D91W (Fab, V domains shown)
VH: QVQLVESGGGLVQPGGSLRLSCAASGFTFRSYGMDWVRQAPGKGLEWVSSIRGSRSSTYYADSVKGRFTISRDNSKNTLYLQMNSLRAEDTAVYYCARLYRYWFDYWGQGTLVTVSS
VL: DIELTQPPSVSVAPGQTARISCSGDNLRKYYAHWYQQKPGQAPVVVIFYDVNRPSGIPERFSGSNSGNTATLTISGTQAEDEADYYCQSWWDGVPVFGGGTKLTVLG
On to B7, for which the variant/HC_K99L in experiment [1] turned out to be 18.9 ratio; in experiment [2] it was 20 ratio.

B8: 2A8 HC S35D+S55R+K99L/LC I2Y+Y48F+N51V+D91W (Fab, V domains shown)
VH: QVQLVESGGGLVQPGGSLRLSCAASGFTFRSYGMDWVRQAPGKGLEWVSSIRGSRSSTYYADSVKGRFTISRDNSKNTLYLQMNSLRAEDTAVYYCARLYRYWFDYWGQGTLVTVSS
VL: DYELTQPPSVSVAPGQTARISCSGDNLRNYYAHWYQQKPGQAPVVVIFYDVNRPSGIPERFSGSNSGNTATLTISGTQAEDEADYYCQSWWDGVPVFGGGTKLTVLG
Take B8: the variant/HC_K99L in experiment [1] was 19 ratio; in experiment [2], 18.7 ratio.

B9: 2A8 HC S35D+S54F+S55R+K99L/LC D91L+V96W (Fab, V domains shown)
VH: QVQLVESGGGLVQPGGSLRLSCAASGFTFRSYGMDWVRQAPGKGLEWVSSIRGFRSSTYYADSVKGRFTISRDNSKNTLYLQMNSLRAEDTAVYYCARLYRYWFDYWGQGTLVTVSS
VL: DIELTQPPSVSVAPGQTARISCSGDNLRNYYAHWYQQKPGQAPVVVIYYDNNRPSGIPERFSGSNSGNTATLTISGTQAEDEADYYCQSWLDGVPWFGGGTKLTVLG
For B9, the variant/HC_K99L in experiment [1] came to 12.1 ratio; in experiment [2], 14.9 ratio.

B10: 2A8 HC S35D+S55R+K99L/LC H33Y+Y48F+N51V+D91W (Fab, V domains shown)
VH: QVQLVESGGGLVQPGGSLRLSCAASGFTFRSYGMDWVRQAPGKGLEWVSSIRGSRSSTYYADSVKGRFTISRDNSKNTLYLQMNSLRAEDTAVYYCARLYRYWFDYWGQGTLVTVSS
VL: DIELTQPPSVSVAPGQTARISCSGDNLRNYYAYWYQQKPGQAPVVVIFYDVNRPSGIPERFSGSNSGNTATLTISGTQAEDEADYYCQSWWDGVPVFGGGTKLTVLG
For the molecule B10, the figures for the variant/HC_K99L in experiment [1] and in experiment [2] were 11.2 ratio and 14 ratio, respectively.

B11: 2A8 HC S35D+S55G+K99L/LC Y48F+D91L+V96W (Fab, V domains shown)
VH: QVQLVESGGGLVQPGGSLRLSCAASGFTFRSYGMDWVRQAPGKGLEWVSSIRGSGSSTYYADSVKGRFTISRDNSKNTLYLQMNSLRAEDTAVYYCARLYRYWFDYWGQGTLVTVSS
VL: DIELTQPPSVSVAPGQTARISCSGDNLRNYYAHWYQQKPGQAPVVVIFYDNNRPSGIPERFSGSNSGNTATLTISGTQAEDEADYYCQSWLDGVPWFGGGTKLTVLG
In the case of B11, the variant/HC_K99L in experiment [1] was 18.2 ratio; in experiment [2] it was 18.1 ratio.

B12: 2A8 HC S35D+S55R+K99L/LC A13S+Y48F+N51V+D91W (Fab, V domains shown)
VH: QVQLVESGGGLVQPGGSLRLSCAASGFTFRSYGMDWVRQAPGKGLEWVSSIRGSRSSTYYADSVKGRFTISRDNSKNTLYLQMNSLRAEDTAVYYCARLYRYWFDYWGQGTLVTVSS
VL: DIELTQPPSVSVSPGQTARISCSGDNLRNYYAHWYQQKPGQAPVVVIFYDVNRPSGIPERFSGSNSGNTATLTISGTQAEDEADYYCQSWWDGVPVFGGGTKLTVLG
Consider B12, for which the variant/HC_K99L in experiment [1] stood at 19.9 ratio; in experiment [2], 20.1 ratio.

B13: 2A8 HC S35D+S55R+K99L/LC R28P+Y48F+N51V+D91W (Fab, V domains shown)
VH: QVQLVESGGGLVQPGGSLRLSCAASGFTFRSYGMDWVRQAPGKGLEWVSSIRGSRSSTYYADSVKGRFTISRDNSKNTLYLQMNSLRAEDTAVYYCARLYRYWFDYWGQGTLVTVSS
VL: DIELTQPPSVSVAPGQTARISCSGDNLPNYYAHWYQQKPGQAPVVVIFYDVNRPSGIPERFSGSNSGNTATLTISGTQAEDEADYYCQSWWDGVPVFGGGTKLTVLG
B13: the variant/HC_K99L is 23.2 ratio in experiment [1] and 22 ratio in experiment [2].

B14: 2A8 HC S35D+S55R+K99L/LC S21T+Y48F+N51V+D91W (Fab, V domains shown)
VH: QVQLVESGGGLVQPGGSLRLSCAASGFTFRSYGMDWVRQAPGKGLEWVSSIRGSRSSTYYADSVKGRFTISRDNSKNTLYLQMNSLRAEDTAVYYCARLYRYWFDYWGQGTLVTVSS
VL: DIELTQPPSVSVAPGQTARITCSGDNLRNYYAHWYQQKPGQAPVVVIFYDVNRPSGIPERFSGSNSGNTATLTISGTQAEDEADYYCQSWWDGVPVFGGGTKLTVLG
B14: the values for the variant/HC_K99L in experiment [1] and in experiment [2] were 18.8 ratio and 19.5 ratio, respectively.

B15: 2A8 HC S35D+S55R+K99L/LC N26A+Y48F+N51V+D91W (Fab, V domains shown)
VH: QVQLVESGGGLVQPGGSLRLSCAASGFTFRSYGMDWVRQAPGKGLEWVSSIRGSRSSTYYADSVKGRFTISRDNSKNTLYLQMNSLRAEDTAVYYCARLYRYWFDYWGQGTLVTVSS
VL: DIELTQPPSVSVAPGQTARISCSGDALRNYYAHWYQQKPGQAPVVVIFYDVNRPSGIPERFSGSNSGNTATLTISGTQAEDEADYYCQSWWDGVPVFGGGTKLTVLG
In the case of B15, the variant/HC_K99L in experiment [1] and in experiment [2] was 4.1 ratio throughout.

B16: 2A8 HC S35D+S55R+K99L/LC Y48F+N51V+D91W+P95V (Fab, V domains shown)
VH: QVQLVESGGGLVQPGGSLRLSCAASGFTFRSYGMDWVRQAPGKGLEWVSSIRGSRSSTYYADSVKGRFTISRDNSKNTLYLQMNSLRAEDTAVYYCARLYRYWFDYWGQGTLVTVSS
VL: DIELTQPPSVSVAPGQTARISCSGDNLRNYYAHWYQQKPGQAPVVVIFYDVNRPSGIPERFSGSNSGNTATLTISGTQAEDEADYYCQSWWDGVVVFGGGTKLTVLG
Regarding B16, the variant/HC_K99L is 13.7 ratio in experiment [1] and 15.7 ratio in experiment [2].

B17: 2A8 HC S35D+S50A+S55R+K99L/LC Y48F+N51V+D91W (Fab, V domains shown)
VH: QVQLVESGGGLVQPGGSLRLSCAASGFTFRSYGMDWVRQAPGKGLEWVSAIRGSRSSTYYADSVKGRFTISRDNSKNTLYLQMNSLRAEDTAVYYCARLYRYWFDYWGQGTLVTVSS
VL: DIELTQPPSVSVAPGQTARISCSGDNLRNYYAHWYQQKPGQAPVVVIFYDVNRPSGIPERFSGSNSGNTATLTISGTQAEDEADYYCQSWWDGVPVFGGGTKLTVLG
For the molecule B17, the variant/HC_K99L in experiment [1] worked out at 12.6 ratio; in experiment [2], 10.9 ratio.

B18: 2A8 HC S35D+S55R+K99L/LC Y48F+N51V+E80M+D91W (Fab, V domains shown)
VH: QVQLVESGGGLVQPGGSLRLSCAASGFTFRSYGMDWVRQAPGKGLEWVSSIRGSRSSTYYADSVKGRFTISRDNSKNTLYLQMNSLRAEDTAVYYCARLYRYWFDYWGQGTLVTVSS
VL: DIELTQPPSVSVAPGQTARISCSGDNLRNYYAHWYQQKPGQAPVVVIFYDVNRPSGIPERFSGSNSGNTATLTISGTQAMDEADYYCQSWWDGVPVFGGGTKLTVLG
For the molecule B18, the variant/HC_K99L in experiment [1] came to 21.2 ratio; in experiment [2], 23.1 ratio.
